For assay [1], the target named is T1, mouse CD3 on mouse spleen T lymphocytes (mouse, UniProt P22646 22-189).
T1 construct: whole, on cells; also called mouse T lymphocytes
Briefly: flow cytometry (MFI) on purified mouse spleen T lymphocytes, serial dilution. (In general: A flow cytometer gives signals particle by particle.)

For assay [2], the target named is T2, human CD3 (TCR-CD3 complex) on human T cells (human, UniProt P07766 23-207).
T2 construct: whole, on cells; The other subunits of the complex on the cells are not described; also called CD3ε chain; CD3(+) Jurkat T cells
Briefly: flow cytometry (MFI) on purified human T lymphocytes, serial dilution.

The text below walks through data of patent US20140178388A1 (INDUSTRIAL TECHNOLOGY RESEARCH INSTITUTE, published 2014).

T1 sequence (P22646 22-189): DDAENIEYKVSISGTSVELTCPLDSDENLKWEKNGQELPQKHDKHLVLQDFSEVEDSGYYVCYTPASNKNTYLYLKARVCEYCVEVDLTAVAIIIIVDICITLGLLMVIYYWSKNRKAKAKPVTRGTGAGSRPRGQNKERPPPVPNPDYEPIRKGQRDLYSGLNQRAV

In general, Kd refers to the free concentration of one partner at which half of the binding sites on the other are occupied at equilibrium, for simple one-to-one binding. Lower therefore signals higher affinity. “hamster anti-mouse CD3 antibody (145-2C11)” gave an equilibrium dissociation constant (Kd) in assay [1] of 15 nM.

B1: h145FabCSA trimer (Fab, V domains shown)
VH: EVQLQESGGGLVQPGKSLKLSCEASGFTFSGYGMHWVRQAPGRGLESVAYITSSSINIKYADAVKGRFTVSRDNAKNLLFLQMNILKSEDTAMYYCARFDWDKNYWGQGTMVTVSS
VL: DIQMTQSPSSLPASLGDRVTINCQASQDISNYLNWYQQKPGKAPKLLIYYTNKLADGVPSRFSGSGSGRDSSFTISSLESEDIGSYYCQQYYNYPWTFGPGTKVEIKR
notes: Trimeric Fab-collagen-like peptide fusion from the Superdex 200 peak 2 fraction; Expressed in NS0 cells; also called trimeric h145FabCSA
B1: in assay [1], binding was put at a Kd of 4 nM and the “fold greater binding strength than 145-2C11” value came to 3.75 fold.

B2: hOKT3FabCSA trimer (Fab, V domains shown)
VH: QVQLVQSGGGVVQPGRSLRLSCKASGYTFTRYTMHWVRQAPGKGLEWIGYINPSRGYTNYNQKVKDRFTISRDNSKNTAFLQMDSLRPEDTGVYFCARYYDDHYCLDYWGQGTPVTVSS
VL: DIQMTQSPSSLSASVGDRVTITCSASSSVSYMNWYQQTPGKAPKRWIYDTSKLASGVPSRFSGSGSGTDYTFTISSLQPEDIATYYCQQWSSNPFTFGQGTKLQITR
notes: Trimeric Fab-collagen-like peptide fusion from the Superdex 200 peak 2 fraction; Expressed in CHO-S cells; also called trimeric hOKT3FabCSA; trivalent hOKT3FabCSA
Take B2: in assay [2], the Kd worked out at 0.02 nM and the “fold greater binding strength than hOKT3IgG-AA” value worked out at 7.5 fold.

B3: low-Fc binding anti-human CD3 antibody-hOKT3IgG-AA (antibody, V domains shown)
VH: QVQLVQSGGGVVQPGRSLRLSCKASGYTFTRYTMHWVRQAPGKGLEWIGYINPSRGYTNYNQKVKDRFTISRDNSKNTAFLQMDSLRPEDTGVYFCARYYDDHYCLDYWGQGTPVTVSS
VL: DIQMTQSPSSLSASVGDRVTITCSASSSVSYMNWYQQTPGKAPKRWIYDTSKLASGVPSRFSGSGSGTDYTFTISSLQPEDIATYYCQQWSSNPFTFGQGTKLQIT
notes: also called hOKT3IgG-AA (dimer)
In turn, B3 gave a dissociation constant (Kd) in assay [2] of 0.15 nM.
